Experimental data from US20240009318A1 (BLISS BIOPHARMACEUTICAL HANGZHOU, published 2024).
Positions count from the first letter of the chain named. Names may count otherwise.

B1: BB0500-2n (antibody)
heavy: QVQLQESGPGLVKPSETLSLTCTVSGGSVSSGDYYWTWIRQSPGKGLEWIGHIYYSGNANYNPSLKSRLTISIDTSKTQFSLKLSSVTAADTAIYYCVRDRVTGAFDIWGQGTMVTVSSASTKGPSVFPLAPCSRSTSESTAALGCLVKDYFPEPVTVSWNSGALTSGVHTFPAVLQSSGLYSLSSVVTVPSSNFGTQTYTCNVDHKPSNTKVDKTVEPPKSDCKTHTVECPPCPAPEAAGGPSVFLFPPKPKDTLMISRTPEVTCVVVDVSHEDPEVKFNWYVDGVEVHNAKTKPREEQYNSTYRVVSVLTVLHQDWLNGKEYKCKVSNKALPAPIEKTISKAKGQPREPQVYTLPPSREEMTKNQVSLTCLVKGFYPSDIAVEWESNGQPENNYKTTPPVLDSDGSFFLYSKLTVDKSRWQQGNVFSCSVMHEALHNHYTQKSLSLSPGK
light: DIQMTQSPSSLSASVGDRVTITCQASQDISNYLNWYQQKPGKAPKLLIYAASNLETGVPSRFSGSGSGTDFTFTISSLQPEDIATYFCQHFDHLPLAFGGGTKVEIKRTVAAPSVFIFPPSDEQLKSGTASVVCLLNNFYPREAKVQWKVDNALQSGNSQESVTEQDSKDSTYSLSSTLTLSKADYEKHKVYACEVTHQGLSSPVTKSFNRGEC
notes: Same variable domains as BB0500-2f; the heavy chain constant part differs
B2: BB0500-2g1 (antibody, V domains shown)
VH: QVQLQESGPGLVKPSETLSLTCTVSGGSVSSGDYYWTWIRQSPGKGLEWIGHIYYSGNTNYNPSLKSRLTISIDTSKTQFSLKLSSVTAADTAIYYCVRDRVAGAFDIWGQGTMVTVSS
VL: DIQMTQSPSSLSASVGDRVTITCQASQDISNYLNWYQQKPGKAPKLLIYDASNLETGVPSRFSGSGSGTDFTFTISSLQPEDIATYFCQHFDHLPLAFGGGTKVEIKR
notes: The entries already carry the mutation; also called H3T103 single alanine mutant of panitumumab (VH T103A, VL wt)
B3: BB0500-2f1 (antibody, V domains shown)
VH: B2 VH with T59A, A103T
VL: B2 VL
notes: The entries already carry the mutation; also called H2T59 single alanine mutant of panitumumab (VH T59A, VL wt)
B4: BB0500-2f2 (antibody, V domains shown)
VH: B2 VH with A103T
VL: B2 VL with D50A
notes: The entries already carry the mutation; also called L2D50 single alanine mutant of panitumumab (VH wt, VL D50A)
B5: BB0500-2f (antibody)
heavy: QVQLQESGPGLVKPSETLSLTCTVSGGSVSSGDYYWTWIRQSPGKGLEWIGHIYYSGNANYNPSLKSRLTISIDTSKTQFSLKLSSVTAADTAIYYCVRDRVTGAFDIWGQGTMVTVSSASTKGPSVFPLAPCSRSTSESTAALGCLVKDYFPEPVTVSWNSGALTSGVHTFPAVLQSSGLYSLSSVVTVPSSNFGTQTYTCNVDHKPSNTKVDKTVEPKSDKCTHTVECPPCPAPPVAGPSVFLFPPKPKDTLMISRTPEVTCVVVDVSHEDPEVQFNWYVDGVEVHNAKTKPREEQFNSTFRVVSVLTVVHQDWLNGKEYKCKVSNKGLPAPIEKTISKTKGQPREPQVYTLPPSREEMTKNQVSLTCLVKGFYPSDISVEWESNGQPENNYKTTPPMLDSDGSFFLYSKLTVDKSRWQQGNVFSCSVMHEALHNHYTQKSLSLSPGK
light: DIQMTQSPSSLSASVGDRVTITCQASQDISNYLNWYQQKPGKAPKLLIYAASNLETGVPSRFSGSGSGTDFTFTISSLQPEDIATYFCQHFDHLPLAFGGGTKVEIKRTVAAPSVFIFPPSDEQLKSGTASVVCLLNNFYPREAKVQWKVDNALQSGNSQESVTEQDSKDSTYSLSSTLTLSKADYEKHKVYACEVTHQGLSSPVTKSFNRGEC
notes: Same variable domains as BB0500-2n; the heavy chain constant part differs; also called H2T59 / L2D50 double alanine mutant of panitumumab (VH T59A, VL D50A)
B6: BB0500-2g (antibody, V domains shown)
VH: B2 VH
VL: B2 VL with Y32A
notes: also called H3T103 / L1Y32 double alanine mutant of panitumumab (VH T103A, VL Y32A)

What was measured:
human EGFR protein [1] = biological target: T1, human EGFR protein (human, UniProt P00533 25-645, limits assumed); assay: BLI (Octet RED96e), antibody captured on anti-human Fc (AHC) biosensors, EGFR in solution
T1 construct: The BLI text says 'human EGFR'; the ELISA text says only 'EGFR'; also called epidermal growth factor receptor; HER1
Experimental: Affinity tests are performed in SD buffer (0.02% Tween-20, 0.1% BSA in PBS buffer, pH 7.4) using anti-human Fc Capture (AHC) biosensors. Antibody sample or buffer are dispensed into 96-well microtiter plates. AHC biosensors (Pall FortéBio) are pre-wet with SD buffer to establish a baseline before protein immobilization. The antibody sample is immobilized onto the biosensors. […] Mutant and control antibodies binding is evaluated at various concentrations of EGFR. Data are generated automatically by the Data Acquisition software, and data analysis is performed using FortéBio Data Analysis software.

human EGFR protein [2] = biological target: T1, human EGFR protein; assay: ELISA
Experimental: (§1) Mutant antibody samples or control antibodies diluted in 5-fold serial dilutions starting from 10 μg/mL and 8 dilutions total, were coated onto 96-well plates and the plates were incubated at 4° C. overnight. Using HRP-labeled goat anti-human IgG Fc antibody (Sigma, A0170) in 40000 dilution as a detection agent and TMB for colorimetric reaction, the plates read at 450/650 nm for absorbance on Microplate Reader (Molecular Devices, SpectraMax 190) and data analysis was performed using a dose response curve format four parameters logistic model.

human EGFR protein [3] = biological target: T1, human EGFR protein; assay: ELISA of binding to EGFR, 5-fold dilutions from 10 ug/mL, detection with HRP goat anti-human IgG Fc, OD 450/650 nm
Experimental: as §1

| Binder | Kd (human EGFR protein [1]) [nM] | koff (human EGFR protein [1]) [s⁻¹] | kon (human EGFR protein [1]) [M⁻¹ s⁻¹] | EC50 fold change against wt control (human EGFR protein [2]) [fold] | EC50 (read off the curve) (human EGFR protein [3]) [µg/mL] |
| --- | --- | --- | --- | --- | --- |
| B1 | 44.1 | 0.024 | 543000 |  |  |
| B2 |  |  |  | ~100 |  |
| B3 | 1.12 | 0.000736 | 655000 |  | ~0.02 |
| B4 | 28.3 | 0.0154 | 543000 |  | ~0.02 |
| B5 |  |  |  |  | ~0.02 |
| B6 | 38.8 | 0.0272 | 701000 |  | ~0.02 |
